Source: patent publication US20170081419A1 (AbbVie / Abbott, published 2017)
Residue numbers refer to the chain shown, from its start.

T1: human CD46 (recombinant antigen used in affinity and mapping experiments) (human, UniProt P15529 35-285, limits assumed)
T1 construct: also called CD46 antigen
T1 sequence (looked up): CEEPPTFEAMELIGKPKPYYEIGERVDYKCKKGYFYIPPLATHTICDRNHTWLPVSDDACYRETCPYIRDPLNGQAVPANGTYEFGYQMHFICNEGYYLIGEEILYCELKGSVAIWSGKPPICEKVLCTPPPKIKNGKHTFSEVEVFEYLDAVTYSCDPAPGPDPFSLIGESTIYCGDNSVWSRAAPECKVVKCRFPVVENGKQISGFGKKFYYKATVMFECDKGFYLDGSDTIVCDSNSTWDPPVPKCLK

T2: marmoset CD46 homolog (marmoset (Callithrix jacchus), UniProt Q8HYX8 33-285, limits assumed)
T2 sequence (looked up): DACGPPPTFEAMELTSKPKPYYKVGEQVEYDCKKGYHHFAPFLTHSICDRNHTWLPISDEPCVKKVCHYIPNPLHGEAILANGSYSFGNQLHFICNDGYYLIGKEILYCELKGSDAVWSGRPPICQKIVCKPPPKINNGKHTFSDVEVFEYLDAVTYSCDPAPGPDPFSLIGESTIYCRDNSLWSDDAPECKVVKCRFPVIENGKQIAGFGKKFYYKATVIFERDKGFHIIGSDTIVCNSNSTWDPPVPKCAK

B1: humanized antibody hSC1.N71 (antibody, human IgG1, V domains shown)
VH: QVQLQESGPGLVKPSETLSLTCTVSGGSVSSYDISWIRQPPGKGLEWIGVIWTDGGTNYNSAFMSRVTISVDTSKNQFSLKLSSVTAADTAVYYCARVYDGYPWFAYWGQGTLVTVSS
VL: DIQMTQSPSSLSASVGDRVTITCRASQGISNYLNWYQQKPGKAPKLLIYYTSSLHSGVPSRFSGSGSGTDFTLTISSLQPEDFATYYCQQYIKLPWTFGGGTKLEIKR
notes: also called humanized SC1.N71; human SC1.N71
B2: humanized antibody hSC1.N149 (antibody, human IgG1, V domains shown)
VH: QVQLVQSGAEVKKPGASVKVSCKASGYTFTDYNMDWVRQAPGQGLEWMGDINPNNGDTFYNQKFKGRVTMTTDTSTSTAYMELRSLRSDDTAVYYCARSKYDNYPWFAYWGQGTLVTVSS
VL: B1 VL with G28D, S30N
B3: N50.3 (antibody, IgG2b, V domains shown)
VH: EVLLHQSGPELVKPGASVKIPCKASGYTFTDYNMDWVKQSHGKSLEWIGDINPNNGGTFYNQKFKGKATLTVHKSSSTAFMELRSLTSEDTAVYYCTRSKYDNYPWFAYWGQGTLVTVSA
VL: DIQMTQITSSLSASLGDRVTISCSASQGISNYLNWYQQKPDGTVKLLIYYTSSLHSGVPSRFRGSGSGTNYSLTISNLEPEDIATYYCQQYIKLPWTFGGGTKLEIKR
notes: .3 is the subclone suffix; also called SC1.N50
B4: N135.1 (antibody, IgG2b, V domains shown)
VH: DVQLVESGGGLVQPGGSRKLSCAASGFTFSSFGMHWVRQAPEKGLEWVAYISSATSAIYYADTVKGRFTISRDNPTNTLFLQMTSLRSEDTAMYYCARKGNNYFDYWGQGTTLTVSS
VL: QIVLTQSPAIMSASPGEKVTLSCSATSSVTYMHWLQQKPGSSPKPWIYRTSNLASGVPARFRGSGSGTSYSLTISSMEAEDAATYYCQQYHSYPPTFGGGTKLEIKR
notes: .1 is the subclone suffix; also called SC1.N135
B5: N146.2 (antibody, IgG1, V domains shown)
VH: EVQLVESGGGLVKPGGSLKLSCAASGFTFSSFGMSWVRQTPEKRLEWVAAINSNGGNTYYSDTVKGRFTISRDNAKNTLYLQMSSLRSADTALYYCARVVHFDVWGAGTTVTVSS
VL: AIQMTQTTSSLSASLGDRVTISCSASQDISNYLNWYQQKPDGTVKLLIYYTSSLHSGVPSRFSGSGSGTDYSLTISNVEPEDVATYYCQQYSELPYTFGGGTKLEINR
notes: Kept apart from m10, which is the mouse/human chimeric form of the same clone; also called SC1.N146 (murine hybridoma clone)
B6: N95.1 (antibody, IgG2a, V domains shown)
VH: QVQLQQSGAELARPGASVKLSCKASDYTFTSYGISWVKQRTGQGLEWIGEIFPRSGNTYYNEKFKGKATLTADKSSSTAYMELRSLTSEDSAVYFCARGLGGAMDYWGQGTSVIVSS
VL: DIVMTQAAPSVPVTPGESVSISCRSSKSLLHSNGNTYLYWFLQRPGQSPQLLIYRMSNLASGVPDRFSGSGSGTTFTLRISGVEAEDVGVYYCMQHLEYPCTFGGGTKLEIKR
notes: .1 is the subclone suffix; also called SC1.N95

Tests used:
[1] = target: T1, human CD46 (recombinant antigen used in …); test: SPR (Biacore), human CD46 antigen series, 1:1 Langmuir model
[2] = target: human CD46 on the cell surface (human), P15529; test: cell-based or functional assay
[3] = target: T1, human CD46 (recombinant antigen used in …); test: bio-layer interferometry (ForteBIO, superscript F), antigen concentration series
Procedure: (§1) With regard to the data, affinity was measured in three ways to ensure accuracy. […] Second, the affinities and kinetic constants kₒₙ and koff of the selected modulators were then measured using bio-layer interferometry analysis on a ForteBIO RED (ForteBIO, Inc.) with a standard antigen concentration series. Finally, the affinity of selected modulators was measured by surface plasmon resonance (Biacore System, GE Healthcare). Based on a standard antigen concentration series and using a 1:1 Langmuir binding model, the Kd of the antibody binding to antigen and the kinetic constants kₒₙ and koff were determined.

[4] = target: T2, marmoset CD46 homolog; test: ForteBIO, concentration series of recombinant monomeric CD46 homolog
Procedure: Finally, cross-reactivity with regard to cynomolgus, marmoset, and squirrel monkey CD46 homologs were evaluated in ForteBIO using a concentration series with recombinantly expressed, monomeric CD46 antigens.

[5] = target: T1, human CD46 (recombinant antigen used in …); test: surface plasmon resonance (Biacore, superscript B), antigen concentration series, 1:1 Langmuir model
Procedure: as §1

Binder | effective concentrations causing 50% cell death (EC50), HEK-293T cells, streptavidin-saporin [2] [nM] | Kd [3] [nM] | binding result [4] | other results
B1 | 0.0266 | – | – | Kd [1]: 0.7 nM
B2 | 0.174 | – | – | –
B3 | – | 1 | – | –
B4 | – | 1 | no binding | –
B5 | – | – | no binding | Kd [5]: 1.5 nM
B6 | – | 8 | no binding | –
